The numbers were not newly measured in patent publication US11376231B2, “Compositions of bioactive fulvate fractions and uses thereof” (OMNI BIOCEUTICAL INNOVATIONS, INC., priority 2016, dated 2022), which cites them from elsewhere.

Read-outs that look alike come from different tables or passages of the source.

This data set has as its system chronic wounds. The arrangement: key: N.S. = not statistically significant.

B1: TGF-β2: transforming growth factor-β2 (protein, UniProt P61812 303-414, looked up)
Transforming growth factor …: ALDAAYCFRNVQDNCCLRPLYIDFKRDLGWKWIHEPKGYNANFCAGACPYLWSSDTQHSRVLSLYNTINPEASASPCCVSQDLEPLTILYYIGKTPKIEQLSNMIVKSCKCS
modifications: Transforming growth factor beta-2
B1: for the setting “venous (36), 2.5 μg/cm^2 three times per week, Robson et al.”, the Results result is recorded as “N.S”.

B2: PDGF-BB: platelet-derived growth factor BB (protein, UniProt P01127 82-190, looked up)
Platelet-derived growth …: SLGSLTIAEPAMIAECKTRTEVFEISRRLIDRTNANFLVWPPCVEVQRCSGCCNNRNVQCRPTQVQLRPVQVRKIEIVRKKPIFKKATVTLEDHLACKCETVAAARPVT
modifications: homodimer
Turning to B2, the Results entry (pressure (20), 1, 10, and 100 μg/mL daily, Robson et al.) is “N.S”; the Results entry (pressure (45), 1 and 3 μg/mL daily, Mustoe et al.) is listed as “N.S”.
